Source: US20200002405A1
Where two headings read alike, the source gives them in different places.

Legend:
Assay in all cases: cell-based or functional assay
[1] = target: LASV 237 (lineage III) glycoprotein (Lassa virus, strain 237)
[2] = target: LASV A19 (lineage II) glycoprotein (Lassa virus, strain A19)
[3] = target: LASV Josiah (lineage IV) glycoprotein, full-length GP (Lassa virus, Josiah strain) (UniProt P08669)
[4] = target: LASV Pinneo (lineage I) glycoprotein (Lassa virus, strain Pinneo)
[5] = target: LASV Josiah (lineage IV) glycoprotein, full-length GP (Lassa virus, Josiah strain) (UniProt P08669); remark: listed apart in the source

LASV Josiah (lineage IV) glycoprotein, full-length GP (Lassa virus, Josiah strain), sequence (P08669 2-491): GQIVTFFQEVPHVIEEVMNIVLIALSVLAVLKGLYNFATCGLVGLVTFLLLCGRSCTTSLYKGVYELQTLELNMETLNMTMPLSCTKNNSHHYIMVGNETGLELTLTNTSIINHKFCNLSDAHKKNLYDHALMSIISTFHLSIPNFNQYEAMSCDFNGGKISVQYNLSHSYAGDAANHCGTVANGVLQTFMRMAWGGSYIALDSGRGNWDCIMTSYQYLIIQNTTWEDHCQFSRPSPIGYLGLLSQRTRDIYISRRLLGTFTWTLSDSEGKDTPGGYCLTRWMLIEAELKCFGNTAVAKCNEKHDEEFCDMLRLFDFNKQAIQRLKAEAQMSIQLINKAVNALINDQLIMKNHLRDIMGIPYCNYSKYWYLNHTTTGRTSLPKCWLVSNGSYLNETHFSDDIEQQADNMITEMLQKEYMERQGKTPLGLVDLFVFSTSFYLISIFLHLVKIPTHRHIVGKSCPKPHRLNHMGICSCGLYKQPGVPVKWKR

B1: 25.10C (antibody, V domains shown)
VH: QVQLQESGGGLVKPGGSLRLSCTASGFNFNKYNMNWVRQAPGKGLEWVSSISALSTYIYYADSLKGRFTVSRDNAKNSLFLQMNSLRDDDTAVYYCAREIRRASTWSADLWGRGTLVTVSS
VL: DIQMTQSPSSLSASVGDRVIITCRASQSISSSLNWYQQKPGKAPKLLIYAAVNLETGVPSRFSGSGFGTDFTLAISNVQPEDFATYYCQQSDTRTFGRGTKLDVKR
- IC50 (neutralization) [1]: 0.058 µg/mL
- IC80 (neutralization) [1]: 0.18 µg/mL
- IC50 (neutralization) [2]: 0.104 µg/mL
- IC80 (neutralization) [2]: 0.364 µg/mL
- IC50 (neutralization) [3]: 0.094 µg/mL
- IC80 (neutralization) [3]: 0.174 µg/mL
- IC50 (neutralization) [4]: 0.226 µg/mL
- IC80 (neutralization) [4]: 0.564 µg/mL
- IC50 (neutralization) [5]: 0.16 µg/mL
- IC80 (neutralization) [5]: 0.247 µg/mL

B2: 19.7E (antibody, V domains shown)
VH: EVQLVESGGGLVRPGGSLRLSCAASGFSFSSYSMHWVRHVPGKGLVWVSYINSDGSTKIYADSVKGRFSISRDNAKNKLYLQMDSLRVEDTAVYSCVRLVHYDWSPFVWGQGTLVTVSS
VL: EIVLTQSPSTLSASVGDRVTITCRASQSINNWLAWYQEKPGKAPKLLINKASSLESGVPSRFSGSGSGTEFTLTITSLQPDDFATYYCQQYNSNSWTFGQGTKVDMKR
- IC50 (neutralization) [1]: 1.06 µg/mL
- IC80 (neutralization) [1]: 15 µg/mL
- IC50 (neutralization) [2]: > 20 µg/mL
- IC80 (neutralization) [2]: > 20 µg/mL
- IC50 (neutralization) [3]: 5.91 µg/mL
- IC80 (neutralization) [3]: > 20 µg/mL
- IC50 (neutralization) [4]: 1.56 µg/mL
- IC80 (neutralization) [4]: 3.27 µg/mL
- IC50 (neutralization) [5]: 1.19 µg/mL
- IC80 (neutralization) [5]: > 10 µg/mL
